{"source": "patent US20030087827", "proteins": {"B1": {"name": "recombinant truncated mouse furin (protein)", "chain": "DVYQEPTDPKFPQQWYLSGVTQRDLNVKEAWAQGFTGHGIVVSILDDGIEKNHPDLAGNYDPGASFDVNDQDPDPQPRYTQMNDNRHGTRCAGEVAAVANNGVCGVGVAYNARIGGVRMLDGEVTDAVEARSLGLNPNHIHIYSASWGPEDDGKTVDGPARLAEEAFFRGVSQGRGGLGSIFVWASGNGGREHDSCNCDGYTNSIYTLSISSATQFGNVPWYSEACSSTLATTYSSGNQNEKQIVTTDLRQKCTESHTGTSASAPLAAGIIALTLEANKNLTWRDMQHLVVQTSKPAHLNADDWATNGVGRKVSHSYGYGLLDAGAMVALAQNWTTVAPQRKCIVEILVEPKDIGKRLEVRKAVTACLGEPNHITRLEHVQARLTLSYNRRGDLAIHLISPMGTRSTLLAARPHDYSADGFNDWAFMTTHSWDEDPAGEWVLEIENTSEANNYGTLTKFTLVLYGTAPEGLSTPPESSGCKTLTSSQACVVCEEGYSLHQKSCVQHCPPGFIPQVLDTHYSTENDVEIIRASVCTPCHASCATCQGPAPTDCLSCPSHASLDPVEQTCSRQSQSSRESRPQQQPPALRPEVEMEPRLQAGLASHLPE"}, "B2": {"name": "proprotein convertase PACE4 (enzyme, UniProt P29122 150-969, looked up, species assumed)", "Proprotein convertase subtilisin/kexin type 6": "QVRSDPQALYFNDPIWSNMWYLHCGDKNSRCRSEMNVQAAWKRGYTGKNVVVTILDDGIERNHPDLAPNYDSYASYDVNGNDYDPSPRYDASNENKHGTRCAGEVAASANNSYCIVGIAYNAKIGGIRMLDGDVTDVVEAKSLGIRPNYIDIYSASWGPDDDGKTVDGPGRLAKQAFEYGIKKGRQGLGSIFVWASGNGGREGDYCSCDGYTNSIYTISVSSATENGYKPWYLEECASTLATTYSSGAFYERKIVTTDLRQRCTDGHTGTSVSAPMVAGIIALALEANSQLTWRDVQHLLVKTSRPAHLKASDWKVNGAGHKVSHFYGFGLVDAEALVVEAKKWTAVPSQHMCVAASDKRPRSIPLVQVLRTTALTSACAEHSDQRVVYLEHVVVRTSISHPRRGDLQIYLVSPSGTKSQLLAKRLLDLSNEGFTNWEFMTVHCWGEKAEGQWTLEIQDLPSQVRNPEKQGKLKEWSLILYGTAEHPYHTFSAHQSRSRMLELSAPELEPPKAALSPSQVEVPEDEEDYTAQSTPGSANILQTSVCHPECGDKGCDGPNADQCLNCVHFSLGSVKTSRKCVSVCPLGYFGDTAARRCRRCHKGCETCSSRAATQCLSCRRGFYHHQEMNTCVTLCPAGFYADESQKNCLKCHPSCKKCVDEPEKCTVCKEGFSLARGSCIPDCEPGTYFDSELIRCGECHHTCGTCVGPGREECIHCAKNFHFHDWKCVPACGEGFYPEEMPGLPHKVCRRCDENCLSCAGSSRNCSRCKTGFTQLGTSCITNHTCSNADETFCEMVKSNRLCERKLFIQFCCRTCLLAG"}, "B3": {"name": "proprotein convertase PC1 (enzyme, UniProt P29120 111-753, looked up, species assumed)", "Neuroendocrine convertase 1": "SALRDSALNLFNDPMWNQQWYLQDTRMTAALPKLDLHVIPVWQKGITGKGVVITVLDDGLEWNHTDIYANYDPEASYDFNDNDHDPFPRYDPTNENKHGTRCAGEIAMQANNHKCGVGVAYNSKVGGIRMLDGIVTDAIEASSIGFNPGHVDIYSASWGPNDDGKTVEGPGRLAQKAFEYGVKQGRQGKGSIFVWASGNGGRQGDNCDCDGYTDSIYTISISSASQQGLSPWYAEKCSSTLATSYSSGDYTDQRITSADLHNDCTETHTGTSASAPLAAGIFALALEANPNLTWRDMQHLVVWTSEYDPLANNPGWKKNGAGLMVNSRFGFGLLNAKALVDLADPRTWRSVPEKKECVVKDNDFEPRALKANGEVIIEIPTRACEGQENAIKSLEHVQFEATIEYSRRGDLHVTLTSAAGTSTVLLAERERDTSPNGFKNWDFMSVHTWGENPIGTWTLRITDMSGRIQNEGRIVNWKLILHGTSSQPEHMKQPRVYTSYNTVQNDRRGVEKMVDPGEEQPTQENPKENTLVSKSPSSSSVGGRRDELEEGAPSQAMLRLLQSAFSKNSPPKQSPKKSPSAKLNIPYENFYEALEKLNKPSQLKDSEDSLYNDYVDVFYNTKPYKHRDDRLLQALVDILNEEN"}, "B4": {"name": "proprotein convertase PC2 (enzyme, UniProt P16519 110-638, looked up, species assumed)", "Neuroendocrine convertase 2": "GYRDINEIDINMNDPLFTKQWYLINTGQADGTPGLDLNVAEAWELGYTGKGVTIGIMDDGIDYLHPDLASNYNAEASYDFSSNDPYPYPRYTDDWFNSHGTRCAGEVSAAANNNICGVGVAYNSKVAGIRMLDQPFMTDIIEASSISHMPQLIDIYSASWGPTDNGKTVDGPRELTLQAMADGVNKGRGGKGSIYVWASGDGGSYDDCNCDGYASSMWTISINSAINDGRTALYDESCSSTLASTFSNGRKRNPEAGVATTDLYGNCTLRHSGTSAAAPEAAGVFALALEANLGLTWRDMQHLTVLTSKRNQLHDEVHQWRRNGVGLEFNHLFGYGVLDAGAMVKMAKDWKTVPERFHCVGGSVQDPEKIPSTGKLVLTLTTDACEGKENFVRYLEHVQAVITVNATRRGDLNINMTSPMGTKSILLSRRPRDDDSKVGFDKWPFMTTHTWGEDARGTWTLELGFVGSAPQKGVLKEWTLMLHGTQSAPYIDQVVRDYQSKLAMSKKEELEEELDEAVERSLKSILNKN"}}, "key": {"[1]": {"molecular_target": "pERTKR-MCA (pyr-Glu-Arg-Thr-Lys-Arg-methylcoumarinamide)", "test": "enzyme assay, hydrolysis of fluorogenic substrate, least squares fit (EnzFitter)"}, "[2]": {"molecular_target": "T1, Hexa-D-arginine", "T1 chain": "RRRRRR"}, "[3]": {"molecular_target": "T2, Nona-L-arginine", "T2 chain": "RRRRRRRRR"}, "[4]": {"molecular_target": "T3, Hexa-L-arginine", "T3 chain": "RRRRRR"}, "[5]": {"system": "pERTKR-MCA (pyr-Glu-Arg-Thr-Lys-Arg-methylcoumarinamide)", "test": "enzyme assay, hydrolysis of fluorogenic substrate, least squares fit (EnzFitter)", "remark": "listed apart in the source"}, "[6]": {"system": "T4, Nona-L-arginine", "T4 sequence": "RRRRRRRRR", "remark": "listed apart in the source"}}, "note": "Where two headings read alike, the source gives them in different places.", "data": [{"protein": "B1", "values": [{"measurement": "Km", "setting": "[1]", "result": "The Kms of PC1, PC2, furin, and PACE4 were determined as 11, 42, 8, and 15 µM, respectively"}, {"measurement": "cleavage of the peptide by furin (HPLC)", "setting": "[2]", "result": "essentially no cleavage was observed after 24 h of incubation (results not shown)"}, {"measurement": "cleavage of the peptide by furin (HPLC)", "setting": "[3]", "result": "Cleavage of nona-L-arginine (SEQ ID NO 13) was first observed ˜40 min after reaction with furin had commenced, with the appearance of hexa- and hepta-L-arginine"}, {"measurement": "cleavage of the peptide by furin (HPLC)", "setting": "[4]", "result": "essentially no cleavage was seen after six hours incubation with furin (results not shown). After 24 hours, partial digestion of hexa-L-arginine (SEQ ID NO 14) had occurred, producing some penta-L-arginine"}]}, {"protein": "B2", "values": [{"measurement": "Km", "setting": "[5]", "result": "The Kms of PC1, PC2, furin, and PACE4 were determined as 11, 42, 8, and 15 µM, respectively"}]}, {"protein": "B3", "values": [{"measurement": "Km", "setting": "[5]", "result": "The Kms of PC1, PC2, furin, and PACE4 were determined as 11, 42, 8, and 15 µM, respectively"}]}, {"protein": "B4", "values": [{"measurement": "cleavage of the peptide by PC2 (HPLC)", "setting": "[6]", "result": "essentially no cleavage was observed after 24 h of incubation (results not shown)"}, {"measurement": "Km", "setting": "[5]", "result": "The Kms of PC1, PC2, furin, and PACE4 were determined as 11, 42, 8, and 15 µM, respectively"}]}]}
